Substrate in data set [1]: CC(=O)Oc1cccc2ccccc12
Briefly: purified protein. It counts as biochemical, Tetranychus urticae. Particulars: 0.1 M phosphate buffer pH 7.5, 1 µg enzyme, fast blue RR.

Substrate in data set [2]: CC(=O)Oc1ccc([N+](=O)[O-])cc1
Briefly: purified protein. It counts as biochemical, Tetranychus urticae. The note with it: 0.1 M phosphate buffer pH 7.5, 30 °C, 1 µg enzyme, 1% acetone.

Drawing on publication PMC9687926, “High-Resolution Genetic Mapping Combined with Transcriptome Profiling Reveals That Both Target-Site Resistance and Increased Detoxification Confer Resistance to the Pyrethroid Bifenthrin in the Spider Mite Tetranychus urticae” (Biology, 2022), this text covers Km for 1 protein.

B1: CCE58 (Tetranychus urticae) (protein)
chain: TISENVEPELTLSSGSIRGTSVDFRGVKVYQFLGIPFAEPPLNELRFQKPVSKKPWNGVLSVNKWGSACMQPVFPGYNTELHLNEDCLVLNVFTTEAAFQDKQNGKKHKLRPVMVWIHGGSFNYGSANTPDQHDGTPITGLKDVIIVSINYRLGSLGFLQLPEAGVPGNMGLWDQQLALKWVKDNIEHFGGDPNKVTIFGESAGSMSVSAHLVSPQSKGLFTNAIMQSGSIYDLDRWTQPGLVANFTSKIGCISDNYKSCLSNYRFGQFPEADRLTFWPTVDGEFLPHRAEELVSNHTVDPNINVLLGTNANEGAFMLLMKDMVTFHPLNPINLTIPHAKYIFGKLFGKTLIDFYSERYLASLSADDSDSIRLAVTQALGDSIFTCPTYATGRDLIASGVPNVYGYVQTQKPTHTLISVSGQAKWMSNIASHADTFPMVFGHPFNKLDKFKNEDVVLSFLMMDIWTKFAKDGKPPQISHQEWLPWNLSDPIPYPTMVLNSNKIGLIETKSAEFCAKNWPFPLENYYSMDSESGVYAEIE
notes: full-length MR-VL allele, signal peptide removed, codon-optimised, pPICZalphaA secretion in Pichia pastoris X-33, 6xHis tag, Ni-NTA purified, about 75 kDa on SDS-PAGE
For the protein B1, the Km is given as 0.446 (±0.051) mM in data set [1] and 0.379 (±0.028) mM in data set [2].
